Data from publication PMC10027511 (2023).

Columns and labels:
[1] = target: T1, Sos site 2 peptide site 2 peptide (Drosophila melanogaster, UniProt P26675); experiment: 19F NMR lineshape analysis, 25 °C
T1 chain: GELSPPPIPPRL

[2] = target: T1, Sos site 2 peptide site 2 peptide; experiment: 19F NMR lineshape analysis, 15 °C
[3] = target: T1, Sos site 2 peptide site 2 peptide; experiment: 19F NMR lineshape analysis, 35 °C
[4] = target: T1, Sos site 2 peptide site 2 peptide; experiment: 19F NMR lineshape analysis, 45 °C
[5] = target: T1, Sos site 2 peptide site 2 peptide; experiment: 19F NMR lineshape analysis, 4.2 °C

Kd [1]: 33 µM
Kd [2]: 17 µM
Kd [3]: 59 µM
Kd [4]: 110 µM
Kd [5]: 9 µM
B1: Drk N-terminal SH3 domain N-terminal SH3 (protein)
chain: MEAIAKHDFSATADDELSFRKGQILKILNMEDDSNWYRAELDGKEGLIPSNYIEMKNH
